In article PMC12033910:

Target: holo-PhuS H209A (Pseudomonas aeruginosa PAO1, UniProt O68880 1-354, H209A)
Experiment: EMSA

B1: prrF1-50 (5'-biotin) (dsDNA)
DNA 1: AGCAGAAAAGTTTGGCGAAAGCGTTTGACATGGAAATGAGAATCATTATT
DNA 2: AATAATGATTCTCATTTCCATGTCAAACGCTTTCGCCAAACTTTTCTGCT
- binding result: binds
